Assay results as given in paper PMC8245568, “Xyloglucan processing machinery in Xanthomonas pathogens and its role in the transcriptional activation of virulence factors” (Nature Communications, 2021).

Columns and labels:
[1] = target: the molecule itself; experiment: SAXS; protein samples at 1, 3, 5 and 10 mg mL^-1; D01A-SAXS2 beamline (LNLS); molecular weight by SAXSMoW
[2] = target: the molecule itself; experiment: SEC-MALS; 25 °C; Superdex 200 HR 10/300 GL; 250 μL of protein at 50 μmol L^-1 injected; 20 mmol L^-1 HEPES pH 7.5, 150 mmol L^-1 NaCl

Protein | stoichiometry N [1] | stoichiometry N [2]
XacAfc95, GH95 α-1,2-L-fucosidase encoded by XAC1774 of Xanthomonas citri pv. citri 306 (enzyme, A signal peptide was probably left out of the construct (surmise); also called GH95 α-L-fucosidase; source: E. coli, purified (two chromatographic steps)) not shown | 2 | 
XacGalD, GH35 β-galactosidase encoded by XAC1772 of Xanthomonas citri pv. citri 306, wild type (enzyme, source: E. coli, purified (two chromatographic steps)) not shown |  | 4
